Experimental data: the DeepSol protein solubility set

Assay: soluble on expression in E. coli; label from the status in PepcDB or PDB records

Sequence | soluble on expression in E. coli
MDYNNITEALQAFRTEKAYRHAPLRSCFFDMDGVLFDSMPAHARSWVEAAGECGIAAEPLDFYRWEGQKGSDTIKILFERGYGRLPTEKEIADMYGRKSQLFALYNSGNVIDDAPALVSDVCDRGLRIMLVTGSSQTDILQRLQRSYGDNFSPANMVTGADVHRGKPHPEPYLKALECVGMSPSEAFVVENAPLGVR | not soluble
MAKQELGTKRVDPETGKKFYDLNRDPIVSPYTGISYPRSYFEVAAAEANSEEEVDTEELDTALEKSAFMLLEDDGDDPKDDDLPDLEDSDVDLGDDDDTFLSHDEDDEDDDVTDILGGGVSKDDDS | not soluble
MGSDKIHHHHHHMKFNEFLNNLSNYEPGKDIEVIAKEYGVKEVIKLASNENPFGTPPKAIECLRQNANKAHLYPDDSMIELKSTLAQKYKVQNENIIIGAGSDQVIEFAIHSKLNSKNAFLQAGVTFAMYEIYAKQCGAKCYKTQSITHNLDEFKKLYETHKDEIKLIFLCLPNNPLGECLDASEATEFIKGVNEDCLVVIDAAYNEFASFKDSKKHLEPCELIKEFDNVLYLGTFSKLYGLGGLRIGYGIANANIISAFYKLRAPFNVSNLALKAAVAAMDDDEFTEKTLENNFSQMELYKEFAKKHNIKIIDSYTNFITYFFDEKNSTDLSEKLLKKGIIIRNLKSYGLNAIRITIGTSYENEKFFTEFDKILR | not soluble
MCSKNSENSNVPRAKSDFITPNCSENTKLFMIFQSRKSIICEVCGKKYSSKSALAKHKRTHETDKRCKIKLIFGSSQKKTQKLYFLQKLSFLDADFFSILERNLLIFGYFAIFFSQKNTYISRFTCPMCYASFDLSDPFKIHLRKHDNLKPFGCSYCFKQFSSRSVCRRHVQLMHENQKRAGDGDNDDDDDID | not soluble
MGSDKIHHHHHHMGLRILQVMAGAEQGGAELFFERLCIALHRAGLHQHVVMREASVRLARMREAGLRPVLLPFGGRFDFKTGRALRQEIARFQPAVVLSWMNRATRFVRPGNHVFCARLGGYYDLKYYRGCDWLVCNTEDIRDYVIKQGFPAERAVHLPNFVPQQHMAPTARKLLYTPENAPLVLALGRLHENKAFDVLLRALALVPDVYLWLAGEGPLRASLETLAQDLGVKPRVRFLGWRDDTPALYAAADLVVFPSRHEPLGNVVLEAWAQRTPMVSTRTDGPARLITSGHNGLLVPIDDHRAMAGAIRQAFGEPGLGEAMARAGWDSYLAAYTEEKVVASYRSFFETIVAERSGAVDRG | not soluble
MEPAGPCGFCPAGEVQPARYTCPRCNAPYCSLRCYRTHGTCAENFY | soluble
MGSDKIHHHHHHMSSLLQQFHDEISLRGYSARTRNAYLYAITQLQHYANQPLDNITDEQLTAYFRYLNLEWHHSRATLKLQLNGIHFFYEHVLKRDFTIQLSLPKRPHKLPQLLSCQDIAALLYHCQNLKQRAMLALCYGCGLRVSELTHIKVADIDGQRQLLKVCQGKGACDRWVILSPTLLILLRQYWQAYHPVEWLFASTYHDVVYPLHESTFRKALAKAARLASITKPCSPHSLRHAYATHQLQAGMPLHQLQAQLGHHSIKSTERYLHWSPELGHQGCDLLASLGGMPWQPPTI | not soluble
MGSDKIHHHHHHMPIIATAAWSIPKKVADRFAQGGSSLTRYASVFDGVEVNSTFYRRHKTSTFATWEHSVPDAFRFAVKIPKEITHTSAMRDIAEPFDTFLEDIAPLGEKRGPLLCQLPPSLTFDVEVLQTAFKTMRDADDGPIVIEVRHKSWASAEALDLLKTYRIDRVLADPAPVWPVEDFDTPPKYVRLHGKPKIYYSSYTDDEIKSFSALLAPDSWCVFDNTASGAAIENALNMAEIR | not soluble
MGSDKIHHHHHHVFDKNLRNSFFAEPYSSEPLAIRIREVLNGKVGFYSVGLYPASLAYNCALQNEGFNILLAPRDGRELFGAFSDIDLSEMDNGIKNKIESMAIPNEDKSGRYNTLKDLLINCELVVLSSNSKHIITDLDLAFKLRKELNRDNVLIACLVGSFCHDHNLNESFVLCEKLNKLAFFSGFHRHGALRNPLDSFTANFCHPDSMNAILGAKLLNKISPNIQVSAGIHNVEGQYIKAAKNISSIFAGFGHTFHKNNPGLLPTLLTLLLDQCLDQAAYVSMSRTDREDLYSKQPFPITELGYSVQRIEASYVKDGDFVQVRDHTFTQLKAMVADVRGSMMLPVSGNPTRNFQAGQVLAERMIEYKRCPKGVDEFIEWCERSGLKRGALEGINSLNYWPNILRKYSIPLNNSSMINLLYMCILGPVEIKNCIYNVMSSSRELANYCQESVKSSQNKKISEALDNFHLKTSVDFVTKSLIDDDKLFFENNEIGFDNPLGAQNMPIYNKVIDYMETYLLESNL | not soluble
MGSDKIHHHHHHMTVDPSHTIPVSVTGAFCSLNCPHCGAHYLRHMISVDEIPALVKKGYRSFLISGGMLPDGSIPFEKYYEHLKELKESHGLLYNFHVGFQKSKVAKELADVVSMDFFGDETVLKSIYGLALTPQEILDIAHFYENVVFHITVGITGGKITHEEKALEILSQETDTVVLNVFIPTPGTKFGKSFPPDLQEVVKLFEKARKLFKRVILGCMQPRGEYRKKLQSELKDLVDVITKPVGGTGEFKGCCAFIGRG | not soluble
GEAQERQTDDGIAAFCRHLGELCDLLNAPYDDVNALAHLARAGELQGTNVNLLLHNAFYHWLGERVQLSVAESRDVAPETIAAHAREAALAQIQSGEYVSQFVTAVAAHATQNVDGVQGPVAPTKQSLFDLPGHFELLGPDEVDGLLKDLASSDCPVGALEKLVADPHLLEDLCFGPTWPQLCDSLGRLVCLLPPSGGTQAAVTGAGHHQHGHTRAAAAVGGGAGRAAASVPEMPKQQQLLLQALNEVVSAVAASSPPHAAELLDGLAPYLTALALRLSLPLPGAGTGHATPVAPDQLQTRVQAGMAGPGAGAGDGGPGGVAVVGTGAVGLLVAVTARDA | not soluble
CTEPLGLKDNTIPNKQITASSYYKTWGLSAFSWFPYYARLDNQGKFNAWTAQTNSASEWLQIDLGSQKRVTGIITQGARDFGHIQYVAAYRVAYGDDGVTWTEYKDPGASESKIFPGNMDNNSHKKNIFETPFQARFVRIQPVAWHNRITLRVELLGC | soluble
EITPLIFQKQTTEPVENLRTYTALEMEGRDIYIREGCNVCHSQMIRPFRAETERYGHYSVAGESVWEHPFLWGSKRTGPDLARVGQRYSDEWHRVHLINPRDVVPESNMPGFPWLEENVLDGELTSKKIAIFRDNFGVPYTEEDVKNASEEVKGKTEMDALIAYLQSLGH | not soluble
MGKNLQALAQLYKNALLNDVLPFWENHSLDSEGGYFTCLDRQGKVYDTDKFIWLQNRQVWTFSMLCNQLEKRENWLKIARNGAKFLAQHGRDDEGNWYFALTRGGEPLVQPYNIFSDCFAAMAFSQYALASGEEWAKDVAMQAYNNVLRRKDNPKGKYTKTYPGTRPMKALAVPMILANLTLEMEWLLPQETLENVLAATVQEVMGDFLDQEQGLMYENVAPDGSHIDCFEGRLINPGHGIEAMWFIMDIARRKNDSKTINQAVDVVLNILNFAWDNEYGGLYYFMDAAGHPPQQLEWDQKLWWVHLESLVALAMGYRLTGRDACWAWYQKMHDYSWQHFADPEYGEWFGYLNRRGEVLLNLKGGKWKGCFHVPRAMYLCWQQFEALS | soluble
MAHHHHHHMAISATGTLAVLKVYQLTDAAARLSRAEVDAALEELMGLRVNDSLVQYLSYCYVPPHRVVLVMQYVPGGTLREMKSRYGRKLPLTAVRRNVASMLRGLAHLHGRGVIHGRLCPENVMVGVEGRWRLKGMLLGAAPLIMHQETYYVSPEVAAGGAKTAANDVYALGLLLLAMLTDSHPWQWSANAALDRSRKELDSLLADSTAFREALRNGLLTPVPTPADTDETLRTVLEACLRTAPGDRPTALRLQELRCDRTS | not soluble
AIAPAKSPSTRKKRARTKDEDEENVDTGNQTTAPTFRDKNLQLVHDFLASQNRPFSLQNILDSLANKGDMKKAALDKALTELVTSEYVTCKEYGKAKLYLIRQKNIALPSAEETAALDSRLETLANELEELSAECQVLEAKISELSAQPRTEEAKERVALLETETATIDERIEKLQVHCAGYDSSRRQYIQQQHERALKALRLRRSRARQIILQMAEGMERKPRELADEIGIESDSDDWLTASRSVVSNARSKAAV | soluble
MGSDKIHHHHHHMVSEQVRERAKAGPIPKADYQALFDALEAERSPRDPEWVQAWIILHCATRQRAFACQRLLSRYNRQCVKRGTMGEYSEFLRHVQDDLGFYLPNGNAYTENFRGVDVGEIMAQCGELAARFAELELEVFANSGTLLGIVREGTLLEHDNDIDLGVLLTARTFEGAAQEWIALTDKLIADGVGVSRSTWSKVTLKLQKIGAFGVDLFPAWIDADDKVYVYPHTFGALRRDQLLPYDLHGPTGLHLPADAEAMLECNYGEGWRVPNVGWGFDWKTANAQFEAFLTAVEAAAAPD | not soluble
MSLNNIAPQSPVMRRLTLQDNPAIARVIRQVSAEYGLTADKGYTVADPNLDELYQVYSQPGHAYWVVEYEGEVVGGGGIAPLTGSESDICELQKMYFLPAIRGKGLAKKLALMAMEQAREMGFKRCYLETTAFLKEAIALYEHLGFEHIDYALGCTGHVDCEVRMLRELEGHHHHHH | soluble
VILKEEFRGVIIKQGCLLKQGHRRKNWKVRKFILREDPAYLHYYDPAGAEDPLGAIHLRGCVVTSVESNSNGRKSEEENLFEIITADEVHYFLQAATPKERTEWIKAIQMASRTGK | soluble
MKESAASVAVRPQLREVFERFPADAHRTIEDEIHEMMKCYAFDDAIFLAELHYETDKSNNSESLLLYADCLYRANKKEECYGLLSSVKLSGARLFYLLARVSYDLNKIDDCRGALFEHDDGVIRKDILEEPRVASHANLLHAQMLCDESYMDLALESCQKSLDENILLWSAIITYLRFGGHDLAHTFEKHHRKSNGLYLDSPASSLKSETPSPNVPGPSSSSAASTAEPSRLESSVRRSTRGTIASANRETRNTTSNITPRQSTPGSTPSRINPTAPRKSSRISEMTTRRTESSVTGSRSSLFTEPERPHTRATHSSRNRANAALNSDTENSNASNTRTRSGIASVTRGSSSSQRTNPVRTSIRIADAAAAANKTAKTLSQRRRNEKQPLVSRNSNLARSLSGSTNSVASTASERPSEDEVSQINPPLPSVASSLNNDEPMDIVDGVYDPEYKKLFDVYQHIALIEESISTYNWRSADALFAKLDRDIILNTSMVRLQLGRACFEQSEYRECRNILDDLHKRRKWKVDGTELLSTSMWHLQDTHALSALSQILTTESRERPQSWCAAGNCFSLQRQHTQAIECMERAIQLDKRFAYAYTLLGHELIVQDELDKAAGSFRSALLLSPRDYRAWYGLGLVHLKKEQNLTALTNIQKAVNINPTNRAMLCTLSQIEQQRGQIDTALVLIDRALTLNPLDVACRFNRSRLLFEANRNEECLVELDKLKASSPDEAFIFHLLARVHRRMGNTHLALLNYSWAAELDPRGEQNITDSNVINREEYEDDEYGSPV | not soluble
MTPTIELICGHRSIRHFTDEPISEAQREAIINSARATSSSSFLQCSSIIRITDKALREELVTLTGGQKHVAQAAEFWVFCADFNRHLQICPDAQLGLAEQLLLGVVDTAMMAQNALIAAESLGLGGVYIGGLRNNIEAVTKLLKLPQHVLPLFGLCLGWPADNPDLKPRLPASILVHENSYQPLDKGALAQYDEQLAEYYLTRGSNNRRDTWSDHIRRTIIKESRPFILDYLHKQGWATR | soluble
SLERSVNGKIQKADIFSVPVSFNANEVTHVDTPQEALAASLNKFGEVNLEYMENLSETGRQELLTQLENRIFYNPMMKNYEIKDRFIAGNVVAKVEWIENYLKDYPDDDASKKSLEALQKAIPEPISFELLDFNLGERWIPVSVYEEFAGYLFEAKAHIHYTESIDEFSVSFEETNANITDRYYVKGEKRGYYGNDLLKHALHNTVPDITKTVQDEEGNDIKVRDAEAIQLADAKINEIRSAFTGWLNEQLPEFKQHLADMYNRKFNCYVRPDYDGSLQSFPFLDLKGLGIPSLYDSQ | not soluble
